Test results published in patent US20110280858A1.

Biological target: Lucilia sericata larval excretions/secretions (ES), Batch B: proteinase activities within ES
Experiment: cell-based or functional assay

## soybean trypsin inhibitor (STI) immobilized on cross-linked 4% beaded agarose (from UniProt P01070 25-205)
  residual activity of STI-treated ES against H-Leu-AMC without further inhibitor (FIG. 10A), compared with untreated ES (percent of untreated ES): 25.7
  residual activity of STI-treated ES against H-Leu-AMC, percentage of untreated ES (percent of untreated ES): 28.4
  residual activity of STI-treated ES against Tosyl-Gly-Pro-Arg-AMC-HCl, percentage of untreated ES (percent of untreated ES): 0.5
  residual activity of STI-treated ES against Z-Phe-Arg-AMC-HCl, percentage of untreated ES (percent of untreated ES): 1.8
